Molecular target: the molecule itself
Test: SEC

B1: Fatty Acyl-CoA Synthetase FadD13 (Rv3089) of Mycobacterium tuberculosis, N-terminal 6x histidine tag (enzyme)
chain: MKNIGWMLRQRATVSPRLQAYVEPSTDVRMTYAQMNALANRCADVLTALGIAKGDRVALLMPNSVEFCCLFYGAAKLGAVAVPINTRLAAPEVSFILSDSGSKVVIYGAPSAPVIDAIRAQADPPGTVTDWIGADSLAERLRSAAADEPAVECGGDDNLFIMYTSGTTGHPKGVVHTHESVHSAASSWASTIDVRYRDRLLLPLPMFHVAALTTVIFSAMRGVTLISMPQFDATKVWSLIVEERVCIGGAVPAILNFMRQVPEFAELDAPDFRYFITGGAPMPEALIKIYAAKNIEVVQGYALTESCGGGTLLLSEDALRKAGSAGRATMFTDVAVRGDDGVIREHGEGEVVIKSDILLKEYWNRPEATRDAFDNGWFRTGDIGEIDDEGYLYIKDRLKDMIISGGENVYPAEIESVIIGVPGVSEVAVIGLPDEKWGEIAAAIVVADQNEVSEQQIVEYCGTRLARYKLPKKVIFAEAIPRNPTGKILKTVLREQYSATVPK
notes: also called native FadD13; NP; not shown: His6, N-terminal, kept
stoichiometry N: 2
